Experimental data as given in patent US20220218790A1 (UNIVERSITY OF SHEFFIELD, published 2022).

B1: 14A7 = PTHss-pp-PTH(1-34)-(g4s)4-GHbp (other)
chain: SVSEIQLMHNLGKHLNSMERVEWLRKKLQDVHNFGGGGSGGGGSGGGGSGGGGSFSGSEATAAILSRAPWSLQSVNPGLKTNSSKEPKFTKCRSPERETFSCHWTDEVHHGTKNLGPIQLFYTRRNTQEWTQEWKECPDYVSAGENSCYFNSSFTSIAIPYCIKLTSNGGTVDEKCFSVDEIVQPDPPIALNWTLLNVSLTGIHADIQVRWEAPRNADIQKGWMVLEYELQYKEVNETKWKMMDPILTTSVPVYSLKVDKEYEVRVRSKQRNSGNYGEFSEVLYVTLPQMSQ
B2: 14A2c = PTHss-pp-PTH (1-34)-(g4s)4-PTHrExt-(g4s)4-GHbp (other)
chain: SVSEIQLMHNLGKHLNSMERVEWLRKKLQDVHNFGGGGSGGGGSGGGGSGGGGSDDVMTKEEQIFLLHRAQAQCEKRLKEVLQRPASIMESDKGWTSASTSGKPRKDKASGKLYPESEEDKEAPTGSRYRGRPCLPEWDHILCWPLGAPGEVVAVPCPDYIYDFNHKGHAYRRCDRNGSWELVPGHNRTWANYSECVKFLTNETREREVFDRLGGGGSGGGGSGGGGSGGGGSFSGSEATAAILSRAPWSLQSVNPGLKTNSSKEPKFTKCRSPERETFSCHWTDEVHHGTKNLGPIQLFYTRRNTQEWTQEWKECPDYVSAGENSCYFNSSFTSIAIPYCIKLTSNGGTVDEKCFSVDEIVQPDPPIALNWTLLNVSLTGIHADIQVRWEAPRNADIQKGWMVLEYELQYKEVNETKWKMMDPILTTSVPVYSLKVDKEYEVRVRSKQRNSGNYGEFSEVLYVTLPQMSQ
B3: 14A3b = GHss-PTH (1-34)-(g4s)4-PTHrExt-(g4s)4-GHbp (other)
chain: B2 chain

Target: T1, PTH receptor of the PTH responsive cell line UMR-106 (rat osteoblastic like cell line) (rat, UniProt P25961 27-591)
T1 sequence (looked up): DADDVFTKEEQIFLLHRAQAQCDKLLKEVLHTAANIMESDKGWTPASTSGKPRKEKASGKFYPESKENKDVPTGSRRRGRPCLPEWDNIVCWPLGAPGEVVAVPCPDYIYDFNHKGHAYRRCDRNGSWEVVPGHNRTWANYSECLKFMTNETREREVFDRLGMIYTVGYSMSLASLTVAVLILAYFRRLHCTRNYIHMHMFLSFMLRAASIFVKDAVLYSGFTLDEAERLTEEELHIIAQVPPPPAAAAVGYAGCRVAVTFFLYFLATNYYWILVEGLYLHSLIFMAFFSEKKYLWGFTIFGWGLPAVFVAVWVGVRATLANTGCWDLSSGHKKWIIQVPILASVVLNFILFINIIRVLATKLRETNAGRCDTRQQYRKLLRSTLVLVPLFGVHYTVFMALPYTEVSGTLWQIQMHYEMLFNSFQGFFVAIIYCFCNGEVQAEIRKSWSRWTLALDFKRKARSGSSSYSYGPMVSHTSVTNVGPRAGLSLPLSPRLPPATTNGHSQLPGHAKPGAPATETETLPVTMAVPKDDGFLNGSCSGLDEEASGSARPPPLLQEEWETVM
Assay: cell-based or functional assay

Binder | EC50, Dual Luciferase Reporter Assay, UMR-106 cells | fold by which PTH is more potent than this fusion (EC50, Dual Luciferase Reporter Assay) | Dual Luciferase Reporter Assay, fold increase of 14A2c over 14A3b at 100 nM | Dual Luciferase Reporter Assay, fold increase of 14A2c over 14A3b at 500 nM | fold increase in cAMP levels over 14A3b, UMR-106 cells, 500 nM
B1 | 0.153 µM | 4.7 fold |  |  | 
B2 | 0.579 µM |  | ~1.3 fold | ~1.6 fold | 11 fold
B3 | 0.896 µM |  |  |  | 
